Test [1] concerns the target HER2 (as partner of the 'natural' / 'original' dissociation constants) (UniProt P04626). The test is described as follows: natural dissociation constant of the bought molecule outside the sensor; method not stated.
The target is the same in test [2]. As to the kind of experiment: natural dissociation constant of the molecule outside the sensor; method not stated.

Broadly, the Kd is the concentration at which binding is half-saturated.

In turn, “Anti-Her2 Affibody Molecule (anti-Her2 affibody molecule, Abcam) (designed binder)” displayed an equilibrium dissociation constant (Kd) in test [1] of 0.032 nM.
In test [2], “Z342-EGFP-Histag (a molecule having a polyhistidine tag and an anti-HER2 affibody to which a fluorescence group EGFP is fused) (designed binder)” returned a Kd of 0.106 nM. In other words, the sub-nanomolar range.

(Values after US20230375537A1.)
